Earlier results in PMC3018525.
Read-outs that look alike come from different tables or passages of the source.

How the values were obtained:
EGF (Homo sapiens) [1] = target: EGF (Homo sapiens) (UniProt P01133)
EGF (Homo sapiens) [2] = target: EGF (Homo sapiens) (UniProt P01133); remark: listed apart in the source

Sequence of UniProt P01133 (P01133 971-1023): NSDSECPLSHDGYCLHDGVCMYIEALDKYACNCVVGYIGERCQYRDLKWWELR

Kd (EGF (Homo sapiens) [1]) [nM] | Kd (EGF (Homo sapiens) [2]) [nM] | Substance
0.3 | – | EGFR (high-affinity) (from UniProt P00533)
– | 2 | EGFR (low-affinity) (from UniProt P00533)
